Laboratory results reported in the supplement of paper PMC9112550, “Optimization of the antimicrobial peptide Bac7 by deep mutational scanning” (BMC Biology, 2022).

Tested on: Escherichia coli TOP10
Assay: shrunken log2 fold change of peptide-encoding DNA abundance (4.5 h post-induction vs induction); higher = less antimicrobial activity (less host growth inhibition)
Conditions: time post-induction: 4.5 h; library: site-saturation at positions 5, 18, 19, 20
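Note: peptides expressed intracellularly from a pBAD plasmid library in pooled LB shake-flask culture, induced with 0.3% L-arabinose, DNA abundance read by NGS, three biological replicates, DESeq2 with apeglm shrinkage.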

Sequence | shrunken log2 fold change
RRIRTRPPRLPRPRPRPEFFPRP | -0.0853
RRIRKRPPRLPRPRPRPKDQPRP | 0.619
RRIRNRPPRLPRPRPRPIKDPRP | -0.4
RRIRCRPPRLPRPRPRPWCWPRP | 0.0184
RRIRPRPPRLPRPRPRPTLVPRP | 0.114
RRIRLRPPRLPRPRPRPFDWPRP | -0.133
RRIRPRPPRLPRPRPRPSSIPRP | -0.824
RRIRDRPPRLPRPRPRPKSWPRP | 0.421
RRIRGRPPRLPRPRPRPQEAPRP | 0.492
RRIRDRPPRLPRPRPRPTDMPRP | 0.284
RRIRNRPPRLPRPRPRPNVLPRP | -0.178
RRIRLRPPRLPRPRPRPNHRPRP | 0.00288
RRIRERPPRLPRPRPRPSVFPRP | -0.0831
RRIRARPPRLPRPRPRPGDSPRP | 0.339
RRIRARPPRLPRPRPRPLAPPRP | 0.619
RRIRHRPPRLPRPRPRPGKSPRP | -0.0128
RRIRSRPPRLPRPRPRPKLIPRP | -0.257
RRIRFRPPRLPRPRPRPGTLPRP | -0.422
RRIRARPPRLPRPRPRPEGNPRP | 0.295
RRIRMRPPRLPRPRPRPYNFPRP | -0.363
RRIRKRPPRLPRPRPRPKDDPRP | 0.0898
RRIRSRPPRLPRPRPRPMFEPRP | -0.0573
RRIRERPPRLPRPRPRPMFQPRP | -0.952
RRIRDRPPRLPRPRPRPRSFPRP | 0.429
RRIRGRPPRLPRPRPRPGDSPRP | 0.276

Sequence | shrunken log2 fold change
RRIRLRPPRLPRPRPRPDCVPRP | 0.0107
RRIRNRPPRLPRPRPRPHLKPRP | -0.875
RRIRCRPPRLPRPRPRPIMMPRP | -0.211
RRIRGRPPRLPRPRPRPTIVPRP | 0.779
RRIRLRPPRLPRPRPRPPKWPRP | 0.532
RRIRARPPRLPRPRPRPDNYPRP | 0.0577
RRIRSRPPRLPRPRPRPMWKPRP | -0.101
RRIRTRPPRLPRPRPRPWAAPRP | -0.0363
RRIRWRPPRLPRPRPRPNCYPRP | -0.0773
RRIRERPPRLPRPRPRPSICPRP | -0.151
RRIRWRPPRLPRPRPRPWLPPRP | -0.188
RRIRVRPPRLPRPRPRPEWAPRP | 0.0253
RRIRKRPPRLPRPRPRPLNNPRP | -0.0972
RRIRGRPPRLPRPRPRPVIEPRP | 0.599
RRIRQRPPRLPRPRPRPQHSPRP | -0.062
RRIRLRPPRLPRPRPRPITHPRP | -0.24
RRIRPRPPRLPRPRPRPYPIPRP | -0.175
RRIRWRPPRLPRPRPRPKEAPRP | 0.111
RRIRVRPPRLPRPRPRPKASPRP | 0.0977
RRIRCRPPRLPRPRPRPKYWPRP | 0.22
RRIRVRPPRLPRPRPRPTFQPRP | -0.0952
RRIRIRPPRLPRPRPRPMDYPRP | -0.00141
RRIRLRPPRLPRPRPRPDACPRP | 0.252
RRIRWRPPRLPRPRPRPHYQPRP | -0.00398
RRIRPRPPRLPRPRPRPVYNPRP | 0.88
